Test results from US20220387586A1.

Legend:
[1] = target: cynomolgus LAG3 on cells (cynomolgus); test: flow cytometry on activated cynomolgus PBMC, 10 µg/ml; control (only 2nd Ab (hu): 7.62)
[2] = target: human Fc tagged human Lag3 extra cellular domain (human) (UniProt P18627); test: FACS, inhibition of biotinylated Lag3:Fc binding to MHC-II on A375 cells (competitor MHC-II); control at 10 µg/ml
Sequence of human Fc tagged human Lag3 extra cellular domain (human) (P18627 29-450): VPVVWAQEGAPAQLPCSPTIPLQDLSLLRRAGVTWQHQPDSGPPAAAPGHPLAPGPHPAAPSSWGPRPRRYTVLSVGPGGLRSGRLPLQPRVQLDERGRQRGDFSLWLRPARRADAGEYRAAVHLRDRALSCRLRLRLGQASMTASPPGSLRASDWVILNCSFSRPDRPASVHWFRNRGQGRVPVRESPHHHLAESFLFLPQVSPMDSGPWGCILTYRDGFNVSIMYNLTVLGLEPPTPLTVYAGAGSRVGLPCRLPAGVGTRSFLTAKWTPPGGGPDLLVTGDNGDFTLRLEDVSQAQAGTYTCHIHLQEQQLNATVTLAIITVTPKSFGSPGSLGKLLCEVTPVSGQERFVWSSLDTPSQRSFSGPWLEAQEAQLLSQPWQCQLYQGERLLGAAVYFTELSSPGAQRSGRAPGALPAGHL

| Substance | % positive cyno cells (PBLs) after CD3/CD28 activation [1] [%] | % Inhibition [2] [%] |
| --- | --- | --- |
| DP47 (human isotype) (antibody) | 9.19 |  |
| human IgG1 isotype control (Sigma, cat.no. #I5154) (antibody) |  | -2.9 |
